Legend:
Experiment in all cases: ELISA, IgG coated 1 ug/ml, HEK293 supernatant titrated
[1] = molecular target: T1, TPP-2622 (TweakR-ECD-34-68-hIgGFc-His-S61A) (human)
T1 construct: used as HEK293 supernatant
Experimental: (§1) These TWEAKR(34-68)-Fc muteins were expressed in HEK293 cells. To collect dose-response data, IgGs were coated at a concentration of 1 μg/ml in a 384-well Maxisorp ELISA plate and a serial 2fold dilution of the TWEAKR mutein containing supernatant was used as soluble binding partner. Detection was done with anti-HIS-HRP and Amplex Red.

[2] = molecular target: T2, TPP-2621 (TweakR-ECD-34-68-hIgGFc-His-H60A) (human)
T2 construct: used as HEK293 supernatant
Experimental: as §1

[3] = molecular target: T3, TPP-2613 (TweakR-ECD-34-68-hIgGFc-His-D45A) (human)
T3 construct: used as HEK293 supernatant
Experimental: as §1

[4] = molecular target: T4, TPP-2612 (TweakR-ECD-34-68-hIgGFc-His-S43A) (human)
T4 construct: used as HEK293 supernatant
Experimental: as §1

[5] = molecular target: T5, TPP-2619 (TweakR-ECD-34-68-hIgGFc-His-R58A) (human)
T5 construct: used as HEK293 supernatant
Experimental: as §1

[6] = molecular target: T6, TPP-2616 (TweakR-ECD-34-68-hIgGFc-His-D51A) (human)
T6 construct: used as HEK293 supernatant
Experimental: as §1

[7] = molecular target: T7, TPP-2608 (TweakR-ECD-34-68-hIgGFc-His-R38A) (human)
T7 construct: used as HEK293 supernatant
Experimental: as §1

[8] = molecular target: T8, TPP-2607 (TweakR-ECD-34-68-hIgGFc-His-S37A) (human)
T8 construct: used as HEK293 supernatant
Experimental: as §1

Measured: binding result

B1: P4A8(TPP-1324) (antibody, human IgG1, kappa, V domains shown)
VH: QVQLVQSGAEVKKPGASVKVSCKGSGYTFTDYGMHWVRQAPGQGLEWMGVISTYNGYTNYNQKFKGRVTMTVDKSTSTAYMELRSLRSDDTAVYYCARAYYGNLYYAMDYWGQGTLVTVSS
VL: DIVLTQSPASLAVSLGQRATISCRASKSVSTSSYSYMHWYQQKPGQPPKLLIKYASNLESGVPARFSGSGSGTDFSLNIHPMEEDDTAMYFCQHSRELPFTFGGGTKLEIKR
notes: Human IgG1; variable domains from WO2009/140177 with constant region added
no binding: [1] | [2] | [3] | [4] | [5] | [6] | [7] | [8]

From patent US20160237160A1 (Bayer, published 2016)
